Laboratory results published in PMC10333326.

Biological target: NFAT5 (TonEBP) (UniProt O94916)
Test: co-immunoprecipitation, Western blot
Settings: reference: EZH2 wild type; sites S21

binding against the reference: weaker
Substance: EZH2 (from UniProt Q15910) EZH2 S21A
